Data: US20210087281A1 (AGOMAB THERAPEUTICS, published 2021)

Key:
[1] = target: T1, native human MET on living cells (human, UniProt P08581 25-1390); assay: cell-based or functional assay
[2] = target: T2, native mouse MET on living cells (mouse, UniProt P16056 25-1379); assay: cell-based or functional assay
[3] = target: T1, native human MET on living cells; assay: cell-based or functional assay; remark: listed apart in the source
[4] = target: T2, native mouse MET on living cells; assay: cell-based or functional assay; remark: listed apart in the source
[5] = target: T1, native human MET on living cells; assay: cell-based or functional assay; remark: listed apart in the source
[6] = target: T2, native mouse MET on living cells; assay: cell-based or functional assay; remark: listed apart in the source
[7] = target: T3, mouse MET-Fc (R&D Systems) (mouse, UniProt P16056 25-929, limits assumed); assay: competition ELISA, mMET-Fc in solid phase, competitor 0.3 nM biotinylated mHGF
T3 construct: bought chimeric protein; also called mMET; not shown: Fc part
Experimental: (§1) To investigate along this line, we tested the competition between mAbs and HGF by ELISA. Recombinant human and mouse HGF (R&D Systems) were biotinylated at the N-terminus using NHS-LC-biotin (Thermo Scientific). MET-Fc protein, either human or mouse (R&D Systems), was immobilized in solid phase and then exposed to 0.3 nM biotinylated HGF, either human or mouse, in the presence of increasing concentrations of antibodies (0-120 nM).
(§2) A MET-Fc chimeric protein (either human or mouse) was immobilized in solid phase and exposed to a fixed concentration of biotinylated HGF (either human or mouse), in the presence of increasing concentrations of antibodies. […] Antibody-HGF competition is expressed as IC₅₀ (the concentration that achieves 50% competition) and IMAX (the maximum % competition reached at saturation).

[8] = target: T1, native human MET on living cells; assay: cell-based or functional assay; remark: listed apart in the source
[9] = target: T2, native mouse MET on living cells; assay: cell-based or functional assay; remark: listed apart in the source
[10] = target: T2, native mouse MET on living cells; assay: flow cytometry, MLP29 cells
Experimental: (§3) We also analysed whether chimeric anti-MET antibodies bound to native human and mouse MET in living cells. […] Antibody binding to cells was analysed by flow cytometry using phycoerythrin-conjugated anti-human IgG1 antibodies (eBioscience) and a CyAn ADP analyser (Beckman Coulter). As a positive control for human MET binding, we used a commercial mouse anti-human MET antibody (R&D Systems) and phycoerythrin-conjugated anti-mouse IgG1 antibodies (eBioscience).
(§4) As a positive control for mouse MET binding we used a commercial goat anti-mouse MET antibody (R&D Systems) and phycoerythrin-conjugated anti-goat IgG1 antibodies (eBioscience). […] Consistent with the data obtained in ELISA, maximal binding (EMAX) varied depending on antibody, but was similar in human and mouse cells.

[11] = target: T1, native human MET on living cells; assay: flow cytometry, A549 cells
Experimental: as §3, §4

[12] = target: T4, human MET-Fc (R&D Systems) (human, UniProt P08581 25-932); assay: competition ELISA, hMET-Fc in solid phase, competitor 0.3 nM biotinylated hHGF
T4 construct: extracellular domain; bought chimeric protein; also called hMET; not shown: Fc portion of human IgG1
T4 sequence (P08581 25-932): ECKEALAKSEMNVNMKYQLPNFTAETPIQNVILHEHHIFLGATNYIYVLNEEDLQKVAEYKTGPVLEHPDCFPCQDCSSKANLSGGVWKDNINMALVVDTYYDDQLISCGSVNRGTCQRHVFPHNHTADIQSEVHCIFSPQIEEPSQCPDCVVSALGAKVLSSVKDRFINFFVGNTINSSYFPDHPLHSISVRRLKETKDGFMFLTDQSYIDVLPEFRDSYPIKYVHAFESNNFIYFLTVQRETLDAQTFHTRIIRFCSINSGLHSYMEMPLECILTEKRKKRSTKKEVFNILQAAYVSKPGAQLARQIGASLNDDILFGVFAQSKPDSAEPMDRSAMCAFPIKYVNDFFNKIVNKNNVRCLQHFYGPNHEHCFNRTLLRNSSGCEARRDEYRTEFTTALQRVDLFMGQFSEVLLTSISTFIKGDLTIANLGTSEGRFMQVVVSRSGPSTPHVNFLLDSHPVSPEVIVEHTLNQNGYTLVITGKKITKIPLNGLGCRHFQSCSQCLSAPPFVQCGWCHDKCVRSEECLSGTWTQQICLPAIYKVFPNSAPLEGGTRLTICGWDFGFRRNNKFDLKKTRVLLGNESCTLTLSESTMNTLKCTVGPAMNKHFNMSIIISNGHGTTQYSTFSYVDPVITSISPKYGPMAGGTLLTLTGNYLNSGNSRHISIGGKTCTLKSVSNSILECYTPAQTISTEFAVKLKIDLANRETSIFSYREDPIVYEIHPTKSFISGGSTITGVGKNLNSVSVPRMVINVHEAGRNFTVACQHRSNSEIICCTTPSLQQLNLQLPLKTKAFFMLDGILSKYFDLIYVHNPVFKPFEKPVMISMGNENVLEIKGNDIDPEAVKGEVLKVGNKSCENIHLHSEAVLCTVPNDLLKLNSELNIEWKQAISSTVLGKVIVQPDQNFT
Experimental: as §1, §2

human MET ECD = target: T5, human MET ECD (human, UniProt P08581 25-932); assay: ELISA, MET ECD in solid phase, mAb 0-20 nM
T5 construct: range 1-932; recombinant ECD made by the applicants; the stated range begins at residue 1, so it includes the signal peptide of the entry; also called hMET; hMET ECD
T5 sequence (P08581 25-932 limits assumed, form in doubt): as the sequence (P08581 25-932) above
Experimental: (§5) Production (by transient transfection of mammalian cells) and purification (by protein A affinity chromatography) of the resulting chimeric llama-human IgG1 molecules was outsourced to U-protein Express. Binding of chimeric mAbs to MET was determined by ELISA using hMET or mMET ECD in solid phase and increasing concentrations of antibodies (0-20 nM) in solution. […] Binding capacity (EMAX) varied from antibody to antibody, possibly due to partial epitope exposure in the immobilized antigen, but was similar in the human and mouse setting.

mouse MET ECD = target: T6, mouse MET ECD (mouse, UniProt P16056 25-931); assay: ELISA, MET ECD in solid phase, mAb 0-20 nM
T6 construct: range 1-931; recombinant ECD made by the applicants; the stated range begins at residue 1; also called mMET; mMET ECD
Experimental: as §5

T1 sequence (P08581 25-1390): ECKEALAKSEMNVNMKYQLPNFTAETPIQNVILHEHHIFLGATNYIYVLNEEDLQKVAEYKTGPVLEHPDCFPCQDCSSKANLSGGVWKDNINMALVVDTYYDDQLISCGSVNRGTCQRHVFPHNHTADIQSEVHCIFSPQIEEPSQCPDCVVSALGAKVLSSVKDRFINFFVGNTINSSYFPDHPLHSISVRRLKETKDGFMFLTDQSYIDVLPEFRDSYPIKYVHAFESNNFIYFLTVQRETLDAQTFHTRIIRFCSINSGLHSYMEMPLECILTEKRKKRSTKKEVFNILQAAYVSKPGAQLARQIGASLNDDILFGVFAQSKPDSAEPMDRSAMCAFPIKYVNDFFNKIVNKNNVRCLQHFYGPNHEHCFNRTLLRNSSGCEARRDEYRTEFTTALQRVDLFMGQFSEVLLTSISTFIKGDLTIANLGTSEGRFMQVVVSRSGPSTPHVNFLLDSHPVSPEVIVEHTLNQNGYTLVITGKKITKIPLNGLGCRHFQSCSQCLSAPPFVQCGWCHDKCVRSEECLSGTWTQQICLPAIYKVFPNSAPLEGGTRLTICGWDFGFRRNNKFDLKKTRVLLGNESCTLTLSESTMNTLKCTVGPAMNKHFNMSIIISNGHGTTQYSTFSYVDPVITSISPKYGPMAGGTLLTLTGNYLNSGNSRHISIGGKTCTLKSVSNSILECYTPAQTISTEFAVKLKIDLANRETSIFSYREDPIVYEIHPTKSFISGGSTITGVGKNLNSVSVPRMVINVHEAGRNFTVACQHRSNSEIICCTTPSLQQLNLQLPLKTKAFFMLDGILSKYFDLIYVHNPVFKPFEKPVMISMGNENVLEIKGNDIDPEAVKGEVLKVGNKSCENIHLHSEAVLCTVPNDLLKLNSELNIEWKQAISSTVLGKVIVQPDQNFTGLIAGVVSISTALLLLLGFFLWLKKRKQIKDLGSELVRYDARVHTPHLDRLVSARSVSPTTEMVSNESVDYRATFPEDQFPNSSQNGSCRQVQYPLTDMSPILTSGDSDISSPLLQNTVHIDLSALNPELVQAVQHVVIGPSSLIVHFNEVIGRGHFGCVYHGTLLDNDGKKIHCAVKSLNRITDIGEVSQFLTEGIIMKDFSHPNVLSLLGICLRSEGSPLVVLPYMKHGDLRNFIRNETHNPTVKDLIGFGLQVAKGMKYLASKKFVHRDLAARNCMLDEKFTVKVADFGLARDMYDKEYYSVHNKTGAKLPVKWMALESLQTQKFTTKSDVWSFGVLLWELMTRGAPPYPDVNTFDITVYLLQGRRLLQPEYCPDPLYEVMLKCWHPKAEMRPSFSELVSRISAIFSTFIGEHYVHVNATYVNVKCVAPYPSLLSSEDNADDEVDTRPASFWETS

B1: 74C8 chimeric llama-human IgG1 mAb (antibody, V domains shown)
VH: EVQLVESGGGLVQPGGSLRLSCAASGFTFRNYHMSWVRQVPGKGFEWISDINSAGGSTYYADSVKGRFTISRDNAKNTLYLEMNSLKPEDTALYYCARVNVWGVNYWGKGTLVSVSS
VL: QTVVTQEPSLSVSPGGTVTLTCGLSSGSVTTSNYPGWFQQTPGQAPRTLIYNTNSRHSGVPSRFSGSISGNKAALTITGAQPEDEADYYCSLYPGSYTNVFGGGTHLTVL
notes: llama VH on human IgG1 CH1-CH2-CH3, llama VL on human lambda CL
- phospho-MET ELISA EC50, A549 cells [1]: 0.52 nM
- phospho-MET ELISA EMAX (% HGF activity), A549 cells [1]: 87.6%
- phospho-MET ELISA EC50, MLP29 cells [2]: 0.41 nM
- phospho-MET ELISA EMAX (% HGF activity), MLP29 cells [2]: 102%
- scatter score 0-4, HPAF-II, 0.001 nM [3]: 0 score
- scatter score 0-4, HPAF-II, 0.004 nM [3]: 0 score
- scatter score 0-4, HPAF-II, 0.012 nM [3]: 0 score
- scatter score 0-4, HPAF-II, 0.037 nM [3]: 1 score
- scatter score 0-4, HPAF-II, 0.111 nM [3]: 2 score
- scatter score 0-4, HPAF-II, 0.333 nM [3]: 3 score
- scatter score 0-4, HPAF-II, 1.000 nM [3]: 3 score
- scatter score 0-4, HPAF-II, 3.000 nM [3]: 4 score
- scatter score 0-4, HPAF-II, 9.000 nM [3]: 4 score
- scatter score 0-4, MLP29, 0.001 nM [4]: 0 score
- scatter score 0-4, MLP29, 0.004 nM [4]: 0 score
- scatter score 0-4, MLP29, 0.012 nM [4]: 0 score
- scatter score 0-4, MLP29, 0.037 nM [4]: 1 score
- scatter score 0-4, MLP29, 0.111 nM [4]: 2 score
- scatter score 0-4, MLP29, 0.333 nM [4]: 3 score
- scatter score 0-4, MLP29, 1.000 nM [4]: 3 score
- scatter score 0-4, MLP29, 3.000 nM [4]: 4 score
- scatter score 0-4, MLP29, 9.000 nM [4]: 4 score
- protection from staurosporine, viability EC50, MCF10A cells [5]: > 32 nM
- protection from staurosporine, viability EMAX, MCF10A cells [5]: 41.7%
- protection from staurosporine, viability EC50, MLP29 cells [6]: > 32 nM
- protection from staurosporine, viability EMAX, MLP29 cells [6]: 37.5%
- IC50 [7]: 0.49 nM
- IMAX [7]: 71.5%
- branches per spheroid, LOC cells, 0.5 nM [8]: 10.3 branches
- branches per spheroid, LOC cells, 2.5 nM [8]: 17 branches
- branches per spheroid, LOC cells, 12.5 nM [8]: 18.7 branches
- branches per spheroid, MLP29 cells, 0.5 nM [9]: 17.3 branches
- branches per spheroid, MLP29 cells, 2.5 nM [9]: 15.3 branches
- branches per spheroid, MLP29 cells, 12.5 nM [9]: 22.3 branches
- EC50 [10]: 0.208 nM
- EMAX [10]: 73.8 % relative to control
- EC50 [11]: 0.235 nM
- EMAX [11]: 85.7 % relative to control
- IC50 [12]: 0.43 nM
- IMAX [12]: 76.9%
- EC50 (human MET ECD): 0.09 nM
- EMAX (OD450) (human MET ECD): 0.994 AU
- EC50 (mouse MET ECD): 0.116 nM
- EMAX (OD450) (mouse MET ECD): 0.896 AU

B2: 72F8 chimeric llama-human IgG1 mAb (antibody, V domains shown)
VH: ELQLVESGGGLVQPGGSLRLSCAASGFTFSNYVMSWVRQAPGKGLEWVSDTNSGGSTSYADSVKGRFTISRDNAKNTLYLQMNSLKPEDTALYYCARSFFYGMNYWGKGTQVTVSS
VL: QSALTQPPSLSASPGSSVRLTCTLSSGNNIGSYDISWYQQKAGSPPRYLLNYYTDSRKHQDSGVPSRFSGSKDASANAGLLLISGLQPEDEADYYCSAYKSGSYRWVFGGGTHVTVL
notes: as for B1
- phospho-MET ELISA EC50, A549 cells [1]: 1.51 nM
- phospho-MET ELISA EMAX (% HGF activity), A549 cells [1]: 69.7%
- phospho-MET ELISA EC50, MLP29 cells [2]: 0.79 nM
- phospho-MET ELISA EMAX (% HGF activity), MLP29 cells [2]: 66.8%
- scatter score 0-4, HPAF-II, 0.001 nM [3]: 0 score
- scatter score 0-4, HPAF-II, 0.004 nM [3]: 0 score
- scatter score 0-4, HPAF-II, 0.012 nM [3]: 0 score
- scatter score 0-4, HPAF-II, 0.037 nM [3]: 0 score
- scatter score 0-4, HPAF-II, 0.111 nM [3]: 0 score
- scatter score 0-4, HPAF-II, 0.333 nM [3]: 0 score
- scatter score 0-4, HPAF-II, 1.000 nM [3]: 1 score
- scatter score 0-4, HPAF-II, 3.000 nM [3]: 2 score
- scatter score 0-4, HPAF-II, 9.000 nM [3]: 3 score
- scatter score 0-4, MLP29, 0.001 nM [4]: 0 score
- scatter score 0-4, MLP29, 0.004 nM [4]: 0 score
- scatter score 0-4, MLP29, 0.012 nM [4]: 0 score
- scatter score 0-4, MLP29, 0.037 nM [4]: 0 score
- scatter score 0-4, MLP29, 0.111 nM [4]: 0 score
- scatter score 0-4, MLP29, 0.333 nM [4]: 0 score
- scatter score 0-4, MLP29, 1.000 nM [4]: 1 score
- scatter score 0-4, MLP29, 3.000 nM [4]: 2 score
- scatter score 0-4, MLP29, 9.000 nM [4]: 3 score
- protection from staurosporine, viability EC50, MCF10A cells [5]: > 32 nM
- protection from staurosporine, viability EMAX, MCF10A cells [5]: 35.8%
- protection from staurosporine, viability EC50, MLP29 cells [6]: > 32 nM
- protection from staurosporine, viability EMAX, MLP29 cells [6]: 43.8%
- IC50 [7]: 0.52 nM
- IMAX [7]: 72.8%
- branches per spheroid, LOC cells, 0.5 nM [8]: 9 branches
- branches per spheroid, LOC cells, 2.5 nM [8]: 12.3 branches
- branches per spheroid, LOC cells, 12.5 nM [8]: 16 branches
- branches per spheroid, MLP29 cells, 0.5 nM [9]: 12.7 branches
- branches per spheroid, MLP29 cells, 2.5 nM [9]: 11.7 branches
- branches per spheroid, MLP29 cells, 12.5 nM [9]: 18.7 branches
- EC50 [10]: 0.359 nM
- EMAX [10]: 172 % relative to control
- EC50 [11]: 0.371 nM
- EMAX [11]: 156 % relative to control
- IC50 [12]: 0.45 nM
- IMAX [12]: 77.3%
- EC50 (human MET ECD): 0.064 nM
- EMAX (OD450) (human MET ECD): 2.78 AU
- EC50 (mouse MET ECD): 0.048 nM
- EMAX (OD450) (mouse MET ECD): 2.9 AU
